Laboratory results: publication PMC6907089

How the values were obtained:
Assay in all cases: BioID proximity labeling, quantitative mass spectrometry
Conditions in all cases: inducible HEK293 cells; read off a plot
DHYS = molecular target: DHYS
S23IP = molecular target: S23IP
RFA3 = molecular target: RFA3
WDR44 = molecular target: WDR44
SYAP1 = molecular target: SYAP1
COPB = molecular target: COPB
EMC2 = molecular target: EMC2
DBLOH = molecular target: DBLOH
COPE = molecular target: COPE
AL1A2 = molecular target: AL1A2
ELP4 = molecular target: ELP4
SNP29 = molecular target: SNP29
CHM4B = molecular target: CHM4B
ZYX = molecular target: ZYX
N4BP1 = molecular target: N4BP1
NHLC2 = molecular target: NHLC2
CPIN1 = molecular target: CPIN1
AP2B1 = molecular target: AP2B1
NSMA3 = molecular target: NSMA3
VRK2 = molecular target: VRK2
RFA2 = molecular target: RFA2
EFHD2 = molecular target: EFHD2
PAPOA = molecular target: PAPOA
NSF = molecular target: NSF
TES = molecular target: TES
EIF3D = molecular target: EIF3D
COPB2 = molecular target: COPB2
SEPT9 = molecular target: SEPT9
CCD43 = molecular target: CCD43
CKSP2 = molecular target: CKSP2
DBNL = molecular target: DBNL
SAHH2 = molecular target: SAHH2
TBD2B = molecular target: TBD2B
TXND9 = molecular target: TXND9
CDKAL = molecular target: CDKAL
COPA = molecular target: COPA
ICAL = molecular target: ICAL
COPD = molecular target: COPD
XIAP = molecular target: XIAP
GRWD1 = molecular target: GRWD1
syntaxin 5 (STX5) = syntaxin 5 (STX5) (UniProt Q13190)
SH3G1 = molecular target: SH3G1
TBPL1 = molecular target: TBPL1

UniProt Q13190, sequence (Q13190 whole entry): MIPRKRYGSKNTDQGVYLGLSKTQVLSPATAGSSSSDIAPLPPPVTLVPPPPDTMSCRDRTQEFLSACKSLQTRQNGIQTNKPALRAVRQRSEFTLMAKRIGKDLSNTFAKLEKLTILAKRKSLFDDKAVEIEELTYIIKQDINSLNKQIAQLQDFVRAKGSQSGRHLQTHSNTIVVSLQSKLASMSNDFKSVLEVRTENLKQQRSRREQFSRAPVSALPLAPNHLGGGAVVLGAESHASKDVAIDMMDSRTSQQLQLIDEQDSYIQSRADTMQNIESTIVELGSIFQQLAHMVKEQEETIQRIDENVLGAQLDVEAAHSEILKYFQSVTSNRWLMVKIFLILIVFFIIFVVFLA

STING H232 (wild-type; wt) (from UniProt Q86WV6) G207E
ratio to parent (DHYS): 0 | ratio to parent (S23IP): 0.39 | ratio to parent (RFA3): 0.34 | ratio to parent (WDR44): 0.32 | ratio to parent (SYAP1): 0.41 | ratio to parent (COPB): 0.35 | ratio to parent (EMC2): 0.48 | ratio to parent (DBLOH): 0.48 | ratio to parent (COPE): 0.22 | ratio to parent (AL1A2): 0.39 | ratio to parent (ELP4): 0.38 | ratio to parent (SNP29): 0.26 | ratio to parent (CHM4B): 0.41 | ratio to parent (ZYX): 0.29 | ratio to parent (N4BP1): 0.27 | ratio to parent (NHLC2): 0 | ratio to parent (CPIN1): 0.46 | ratio to parent (AP2B1): 0.35 | ratio to parent (NSMA3): 0.21 | ratio to parent (VRK2): 0.46 | ratio to parent (RFA2): 0.32 | ratio to parent (EFHD2): 0.38 | ratio to parent (PAPOA): 0.4 | ratio to parent (NSF): 0.37 | ratio to parent (TES): 0.47 | ratio to parent (EIF3D): 0.23 | ratio to parent (COPB2): 0.36 | ratio to parent (SEPT9): 0.3 | ratio to parent (CCD43): 0.46 | ratio to parent (CKSP2): 0 | ratio to parent (DBNL): 0.47 | ratio to parent (SAHH2): 0.36 | ratio to parent (TBD2B): 0.39 | ratio to parent (TXND9): 0.36 | ratio to parent (CDKAL): 0.4 | ratio to parent (COPA): 0.31 | ratio to parent (ICAL): 0 | ratio to parent (COPD): 0.28 | ratio to parent (XIAP): 0.21 | ratio to parent (GRWD1): 0.46 | ratio to parent (syntaxin 5 (STX5)): 0.47

STING R232 (from UniProt Q86WV6) G207E
ratio to parent (DHYS): 0 | ratio to parent (S23IP): 0.19 | ratio to parent (RFA3): 0.47 | ratio to parent (WDR44): 0.75 | ratio to parent (SYAP1): 0.5 | ratio to parent (COPB): 0.1 | ratio to parent (EMC2): 0 | ratio to parent (DBLOH): 0.26 | ratio to parent (SH3G1): 0.2 | ratio to parent (COPE): 0.28 | ratio to parent (AL1A2): 0.05 | ratio to parent (ELP4): 0.75 | ratio to parent (SNP29): 0.09 | ratio to parent (CHM4B): 0.14 | ratio to parent (ZYX): 0.8 | ratio to parent (N4BP1): 0.41 | ratio to parent (NHLC2): 0.24 | ratio to parent (CPIN1): 0.17 | ratio to parent (AP2B1): 0.72 | ratio to parent (NSMA3): 0.28 | ratio to parent (VRK2): 0 | ratio to parent (RFA2): 0.43 | ratio to parent (EFHD2): 0.44 | ratio to parent (PAPOA): 0.96 | ratio to parent (NSF): 0.57 | ratio to parent (TBPL1): 0.49 | ratio to parent (TES): 0.72 | ratio to parent (EIF3D): 0.31 | ratio to parent (COPB2): 0.06 | ratio to parent (SEPT9): 0.12 | ratio to parent (CCD43): 0.38 | ratio to parent (CKSP2): 0.41 | ratio to parent (DBNL): 0.24 | ratio to parent (SAHH2): 0.2 | ratio to parent (TBD2B): 0.5 | ratio to parent (TXND9): 0.53 | ratio to parent (CDKAL): 0.2 | ratio to parent (COPA): 0.04 | ratio to parent (ICAL): 0.57 | ratio to parent (COPD): 0.1 | ratio to parent (XIAP): 0.57 | ratio to parent (GRWD1): 0.26 | ratio to parent (syntaxin 5 (STX5)): 0.27
